experiment: yeast display, Sf9 membrane polyspecificity reagent, FACS + sequencing; frameworks hold sequencing errors
Outline: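 After 36–48 hours of galactose induction, yeast (Saccharomyces cerevisiae BJ5465) displaying a synthetic nanobody library were stained at 4 °C for 1 hour with 10% biotinylated, detergent-solubilized Sf9 membrane reagent. Streptavidin microbeads enriched the stained cells before FACS sorting into low and high (top ~1%) gates on anti-HA and streptavidin fluorescence. Each clone's polyreactivity label reflects its gate of origin.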

Row | Sequence | polyreactivity (PSR sort gate)
1 | QVQLVESGGGLVQAGGSLRLSCAASGSISGYYAMGWYRQAPGKERELVASIRYTGARTYYADSVKGRFTISRDNAKNTVYLQMNSLKPEDTAVYYCNARVDWGWPGYEYDYWGQGTQVTVSS | low polyreactivity
2 | QVQLVESGGGLVQAGGSLRLSCAASGSILLGYAMGWYRQAPGKERELVAAITFRGGSTYYADSVKGRFTISRDNAKNTVYLQMNSLKPEATAVYYCAKVWWLYSSTYLRYYWGQGTQVTVSS | low polyreactivity
3 | QVQLVESGGGLVQAGGSLRLSCAASGSIFQPYAMGWYRQAPGKERELVAAITNGGSTYYADSVKGRFTISRDNAKNTVYLQMNSLKPEDTAVYYCAADVQSSHEYDYWGQGTQVTVSS | low polyreactivity
4 | QVQLVESGGGLVQAGGSLRLSCAASGYTFQPYTMGWYRQAPGKERELVAAISKSGTRTYYADSVKGRFTISRDNEKNTVYLQMNSLKPEDTAVYYCAARYTGFLFDYWGQGTQVTVSS | high polyreactivity
5 | QVQLVESGGGLVQAGGSLRLSCAASGRTFWYYAMGWYREAPGKERELVAAITRGGRTNYADSVKGRFTISRDNAKNTVYLQMKSLKPEDTAVYYCAADYRYPAHSYGYWGQGTLVTVSS | high polyreactivity
6 | QVQLVESGGGLVQAGGSLRLSCAASGRTFWGYVMGWYRQAPGKERELVAAISRGDSTYYADSVKGRFTISRDNAKNTVYLQMNSLKPEDTAVYYCAKPGYYVRYGYWGQGTQVTVSS | high polyreactivity
7 | QVQLVESGGGLVQAGGSLRLSCAASGITFFGYAMGWYREAPGKERELVAGISRSTGRTYYADSVKGRFTISRDNAKNTVYLQMNILKPEDTAVYYCAARATRSLSRYMDYWGQGTQVTVSS | high polyreactivity
8 | QVQLVESGGGLVQAGGSLRLSCAASGYIIGRYVMGWYRQAPGKERELVAAITASGGSTYYADSVKGRFTISRDNAKNTVYLQMNSLKPEDTAVYYCAAPTYGRFLRNDYWGQGTQVTVSS | high polyreactivity
9 | QVQLVESGGGLVQAGGSLRLSCAASGRISDVYVMGWYRQAPGKERELVAAITWSGGDTYYADSVKGRFTISRDNAKNTVYLQMNSLNPEDTAVYYCNADTGKWGGNGWYEFDYWGQGTQVTVSS | low polyreactivity
10 | QVQLVESGGGLVQAGGSLRLSCAASGRIFLKYAMGWYRHAPGKERELVAAISLSTGSTYYADSVKGRFTISRDNAKNTVYLQMNSLKAEDTAVYYCAATRKYRYVYWGQGTQGTVSS | high polyreactivity
11 | QVQHVESGGGLVQAGGSLRLSCAASGRTFRRYAMGWYRQAPGKERELVAVITTGSTYYADSVKGRFTISRDNAKNTVYLQMNSLKPEDTALYYCAADFYRATARYEMDYWGQGTQVTVSS | high polyreactivity
12 | QVQLVESGGGLVQAGGSLRLSCAASGSTFGWYAMGWYRQAPGKESELVAAIRTSGGDSTYYADSVKGRFTISRDNAKNTVYLQMNSLKPEDTAVYYCAKTVWWYYRYPFDYWGQGTQGTVSS | low polyreactivity
13 | QVQLVESGGGLVQAGGSLRLSCAASGGIFIGYAMGWYRPAPGKERELVARIRSSGGTTYYADSVKGRFTISRDNAKNTVYLQMNSLKPEDTAVYYCAKRTSSSWAYGPYYYWGQGTQVTVSS | high polyreactivity
14 | QVQLVESGGGLVQAGGSLRLSCAASGSTFVDYAMGWYRQAPGKERELVAAISFSDGSTYYADSVKGRFTISRDNAKNTVYLQMNSLKPEDTAVYYCAKDAYWGYRWYTYDYWGQGTQVTVSS | low polyreactivity
15 | QVQLVESGGGLVQAGGSLRLSCAASGRTFRSIAMGWYRKAPGKERELVAAITSSGGRTYYADSVKGRFTISRDNAKNTVYVQMNSLTPEDTAVYYCNAGRQHPPRYSSYDYWGQGTQVTVSS | high polyreactivity
16 | QVQLVESGGGLVQAGGSLRLSCAASGRIVNYYAMGWYRQAPGKERELVAAINSGGSTDYADSVKGRFTISRDNAKNTVYLQMNSLKPEDTAVYYCNAEKTYLYTDIPGYARFGYWGQGTQVTVSS | high polyreactivity

Row | Sequence | polyreactivity (PSR sort gate)
17 | QVQRVESGGGLVQAGGSLRLSCAASGTIFYHNAMGWYRQAPGIERELVAAITGSGGSTYYADSVKGRFTISRDNAKNTVYLQMNSLKPEDTAVYYCAADGYTKWRISWGYDYWGQGTQVTVCS | low polyreactivity
18 | QVQLVESGGGLVQAGGSLRLSCADSGSIFLFNAMGWYRQAPGKERELVAAINRDDSTYYADSVKGRFTISRDNAKNTVYLQMNSLKPEDTAVYYCAAPVLHASYGYGYWGQGTQVTVSS | low polyreactivity
19 | QVQLVESGGGLVQARGSLRLSCAASGRTFRSYAMGWYRQAPGKERELVAVITRSTGNTYYADSVKGRFTISRDNAMNTVYLQMNSLKPEDTAVYYCARQYRRYDYWGQGTQVTVSS | high polyreactivity
20 | QVQLVESGGGLVQAGGSLRLSCAPAGRTFNGYAMGWYRQAPGKERELVASITLRGGSTYYADSVKGRFTISRDNAKNTVYLQMNSLKPEDTAVYYCNARPHTRRYTFTYGYWGQGTQVTVSS | high polyreactivity
21 | QVQLVESGGGLVQAGGSLRLSCAASGSIFVGYAMGWYRQAPGKEREFVAAISQRGTRTYYADSVKGRFTISRDNAKNTVYLQMNSLKPEDTAVYYCAARGWDQRSDYWGQGTQVIVSS | high polyreactivity
22 | QVQLVESGGGLVQAGGSLRLSCAASGSIFYWNAMGWYRQAPGKEREFVADISQSGDSTYYADSVKGRFTISRDNAKNTVYLQMNSLKQEDTAVYYCAAQFLSYAWDYDYWGQGTQVTVSS | low polyreactivity
23 | QVQLVESGGGLVQAGGSLRLSCAASGLTFYDYAMGWYRQAPGKERELVAAISSGGSTYYADSVKGRFTISRDNAKNTVYLHMNSLKPEDTAVYYCAARPAYRVHAMGYWGQGTQVTVSS | low polyreactivity
24 | QVQLVESGGGLVQAGGSLRISCAASGPTFPLYAMGGNRQAPGKERELVAAIRTGGSTNYADSVKGRFTISRDNAKNTVYLQMNSLKPEDTAVSYCAAVQRTDRSAHYSWGHGTQVTVSS | low polyreactivity
25 | QVQLVESGGGLFQAGGSLRLSCAASGFIFFPYTMGWYRQAPGKERELVAAITNGGSTSYADSVKGRFTISRDNAKNTVYLQMNSLKPEDTAVYYCAADLGRNLLHTYYYWGQGTQVTVSS | low polyreactivity
26 | QVRLVESGGGLVQAGGSLRLSCAASGSIFSPYAMGWYRQAPGKERELVAALSYGVGNTYYADSVKGRFTISRDNAKNTVYLQMNSLKPEDTAVYYCAAEEYDYVYPHYFTKGYYWGQGTQVTVSS | high polyreactivity
27 | QVQRVDSGGGLVQAGGRLRLSCAASGLNFYLYAMGLYRQAPRKEREFVAAITTSGGSTHYADSVKGRFTISRDNAKNTVYLQMNSLKPEDTAVYYCAADDYFHGPGMEFDFLGQGTQVTVSS | low polyreactivity
28 | QVQLHESGGGLVQAGGSLRMSCAASGTISYAGPMGWYLQATGKESEFVAGIGVGSNTNYADSVKGRYTIIRDNAINTLYLQLNSLQPEDTAVYYGAVGGYAPLGRPYWGQGTQVTVRS | low polyreactivity
29 | QVQLVESGGGLVQAGGSLRLSCAASGSTFDTYAMGWYRQAPGKERELVAAISRSGTSTYYADSVKGRFTISRDNAKNTVYLQMISLKPEDTAVYYCDKDAGLQKYHHDYWGQGTQVTVSS | low polyreactivity
30 | QVQLVESGGGLVQAGGSLRLSSAASGSIFELNAMGWYRQAPGKERELVAAIRWRTGRTYYADSVKGRFTISRDNAKNTVYLQMNSLKPEDTAVYYCARVAPASGVRWYYYWGQGTQVTVSS | high polyreactivity
31 | QVQLVESGGGLVQAGGSLRLSCAASGSTFAPNAMGWYRQAPGKERELVAVITRSVGSTYYADSVKGRFTISRDNSKNTVYLKMNSLKPEDTAVYFCAADYLRQDDYVALDYWGQGTQVTVSS | low polyreactivity
32 | QVQLVETGGGLVQAGVSLRLSSAASGLTYTQYALGWYRQAPGKERELVAAITSGGRRYYADSVKGRFTISRDNAKNTVYLQMNSLKPEDTAVYYCAVRGWCSARGMDYWGQGTQVTVSS | high polyreactivity
